Two substances from paper PMC2815101 can be followed below.

Series [1] concerns CC(=O)OCC1=C(C(=O)O)N2C(=O)[C@@H](NC(=O)Cc3cccs3)[C@H]2SC1. Kind of series: Michaelis-Menten hydrolysis kinetics, purified enzyme. In kind it is biochemical, Escherichia coli. Conditions: active site (catalytic Ser64).
Series [2] has as its system CO/N=C(\C(=O)N[C@@H]1C(=O)N2C(C(=O)O)=C(COC(C)=O)CS[C@H]12)c1csc(N)n1. Described as above. The class given is biochemical, Escherichia coli. Particulars: active site (catalytic Ser64).

A word on the Km: it is the substrate concentration at which the rate is half of its maximum. One may read the kcat as the maximal rate divided by the concentration of active sites. In the case of “AmpC β-lactamase (Escherichia coli K-12; E235K)”, in series [1], the Km is 24 µM and the kcat is 84.6 s⁻¹. For the same substance, in series [2], the Km worked out at 77 µM and the kcat was found to be 6.9 s⁻¹.

Turning to “AmpC β-lactamase (Escherichia coli K-12; T86I)”, in series [2], the Km was 295 µM and the turnover number (kcat) amounted to 9.2 s⁻¹.
